Data on 41 sequences can be found in the nanobody polyreactivity screen of Harvey et al. (2022).

The data set in a line: yeast display, Sf9 membrane polyspecificity reagent, FACS + sequencing; frameworks hold sequencing errors. The gist of the method: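 Galactose induction of a Saccharomyces cerevisiae BJ5465 synthetic nanobody display library ran 36–48 hours. The cells were then stained for 1 hour at 4 °C with 10% biotinylated, detergent-solubilized Sf9 membrane reagent, pulled down on streptavidin microbeads and FACS-sorted into low and high (top ~1%) gates on expression and reagent-binding fluorescence. Labels for polyreactivity follow the gate of origin.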
With “QVQLVESVVGLVQAGGSLRLSCAASGRIFYRYAMGWYRQAPGKERELVASITRSGITHYADSVKGRFTISRDNAKNTVYLQMNSLKPEDTAVYYCYARRGSPAPYDYWGQGTQVTVSS”, the “polyreactivity (PSR sort gate)” value is given as “high polyreactivity”. The result for “QVQLVESVVGLVQAGGSLRLSSAASGSIFPYYVMGWYRQAPGKERELVAAISSRGTSTYYADSVKGRFTLSRDNAKNSVYLQMNSLKPEDTAVYYCAAAYVKFYGYSAEYDYCGQGTQVTVSS” reads “low polyreactivity”; that for “QVQLVESWGGIVQAGGSLRLSCAASGFIFSRYGMGWYRQAPGKERELVAAISRSAGSTYYADSVKGRFTISRDNAKNTVYLQMNSQKPEETAVYYCAARHGGRATVEPPIQGYGYWGQGTQVTVSS”, “low polyreactivity”; that for “QVQLVESWGGLFQAGGSLRLSCAASGSTFIYNAMGWYRKAPGKERELVAAITWNYGSTYYADSVKGRFTISRDNANNTVYLQMNSLKPEDTAVYYCAADFTIPYWDANFDYWGQGTQVTVSW”, “low polyreactivity”. The result for “QVQLVESWGGLGQAVGSLRLSCAASGRTFLIYAMGWYIQAPGTERELVASITGRGGRTSYADSVKGRFTISRDNAQNTVYLQMNSLKPEDTAVYYCAARNPYTSTYYYWGQGTQVTVSS” reads “high polyreactivity”; that for “QVQLVESWGGLVHAGGSLRLSCAASGSTFYWYAMGWYIQAPGKEREFVARISSSGSSTFYADSVKGRFTISRDNAKNTVYLQMNSLKPEDTAVYYCAAETYRHYCFNYWGQGTQVTVSS”, “high polyreactivity”. The result for “QVQLVESWGGLVQAGASLRLSCAASGRILPYYAMGWYRQAPGKERELVATISSGGRTNYADSVKGRFTISRDNAKITVYLQMNSLKPEDTEVYFCNKYGFKGGVGYDYWGQGTQVTVSS” reads “high polyreactivity”. “QVQLVESWGGLVQAGGSLRLICAASGSTFYYNAMGWYRQAPGKEREFVAAISSRRGSTYYADSVKGRFTISRDNAKNTVYLQMNSLKQEDTAVYYCAAKYSHRYDWGQGTQVTVSA”: the “polyreactivity (PSR sort gate)” value is “high polyreactivity”.

For the sequence “QVQLVESWGGLVQAGGSLRLSCAASGFTFRAYAMGWYRQAPGKERELVAAISTGGGSTYYADSVKGRFTISRDNAKNTVYLQMKSLKPEDTAVYYCNALPQRRYYYWGQGTQVTVSS”, the “polyreactivity (PSR sort gate)” value is recorded as “high polyreactivity”. The result for “QVQLVESWGGLVQAGGSLRLSCAASGITFTVYAMGWYRQAPGKEREFVAAISSSGSTTYAVSVKGRLTFSRDNAKNTVYLQMNSLKPEDTAVYYCAAEGYYRFSTAYFRRKYEYCGQGTQVTVSS” reads “low polyreactivity”; that for “QVQLVESWGGLVQAGGSLRLSCAASGITLGYYSMGWYRQAPGKERELVAGISSSGDSTYYADSVKGRFTISRDNAKNSVYLQIKSLKPEDTAVYYCIADGWYFEYWGQGTQVTVSS”, “low polyreactivity”.

Turning to “QVQLVESWGGLVQAGGSLRLSCAASGLIFQTYTMGWYKQAPGKERELVAAITSSGGRTYYADSVKGRFTISRDNAKNTVYLQKNSLKPEDTAVYYCAARGPPSAGMGYWGQGTQVTVSS”, the “polyreactivity (PSR sort gate)” value was “high polyreactivity”. With “QVQLVESWGGLVQAGGSLRLSCAASGLILFAYTMGWYRQAPGKERELVAGIDGSGGTTYYADSVKGRFTISRDNAKNTVYLQMNSLNPEDTAVYYCAASGFRWQGVKRMDYWGQGTQVTVSS” the entry was “low polyreactivity”. The result for “QVQLVESWGGLVQAGGSLRLSCAASGNLFADYAMGWYRQAPGTERELVAAISRGGITSYADSVKGRFTISRDNAKNTVYLQMNSLKPEDTAVYYCATDRYDVYDSLGFGYWGQGSQVTVSS” reads “low polyreactivity”; that for “QVQLVESWGGLVQAGGSLRLSCAASGRIFHRNTMGWYRQAPGKERELVAAIRSGSRTYYADSVKGRFTISRDNAKNTVYLQMNSLKPEDTAVYDCATTFGTPRYDYWGQGTQVTVSS”, “high polyreactivity”.

Consider “QVQLVESWGGLVQAGGSLRLSCAASGRILGDYAMGWYRQAPGKEREFVAAIDYNGGSTNYADSVKGRFTISRDNAKNTVFLQMNSLKPEDTAVYYCAAPGFPSRNGFGYWGQGNQVTVSS”, for which the “polyreactivity (PSR sort gate)” value is on record as “low polyreactivity”. On to “QVQLVESWGGLVQAGGSLRLSCAASGRTFSRYAMGWYRQAPRKERELVAAISSRGGSTYYADSVKGRFTISRDFANNTVYLQMNSLYPEDTAVYYCNADSKVDPYGYDYWGQGTQVTVSS”, for which the “polyreactivity (PSR sort gate)” value is on record as “high polyreactivity”. The result for “QVQLVESWGGLVQAGGSLRLSCAASGRTNGYAMGWYRQAPGKERELVARITWRGGSTSYADSVKGRFTISRDNAKNTVYLQMNSLKREDTAVYYCAAGFYFPVYTYVRKRYYYWGQGTQVTVSS” reads “high polyreactivity”. With “QVQLVESWGGLVQAGGSLRLSCAASGSIFYRYAMGWYRQAPGKEREFVAAIRWRGGSTYYADSVKGRFTISRDNAKNTVYLQMNSLKPEDTAVYYCAAPTVQRYNYWGQGTQVTVSS” the entry was “high polyreactivity”; with “QVQLVESWGGLVQAGGSLRLSCAASGSIFYTNVMGWYRQAPGKERELVARIDSGGSTNYADSVKGRFTISRDNAKNTVYLQMNSLKPEDTAVYYCAADWYIYDYWGQGTQVTVSS”, “low polyreactivity”. Turning to “QVQLVESWGGLVQAGGSLRLSCAASGSLFTSNAMVWYRQAPGKEREFVAGIDYSTGGTSYADSVKGRFTISRDNAKNNVYLQMNRLLPEDTAVYYCNADRWLVYVHTWEYDYWGQGTQVTVSS”, the “polyreactivity (PSR sort gate)” value was “low polyreactivity”. Turning to “QVQLVESWGGLVQAGGSLRLSCAASGSTFTPYVMGWSRQAPGKERELVAAISKRGGSTYYADSVKGRFTISRDNANNSVYLQMNSLKPADTAVYYCAAVQPAWGNGYWGQGTQVTVSS”, the “polyreactivity (PSR sort gate)” value was “high polyreactivity”. The result for “QVQLVESWGGLVQAGGSLRLSCAASRIIFRWYAMGWYRKAPGTERELVAAITSDGNTYYADSVKGRFTISRDNAKNTVYLQMNSLKPEDTAVYYCAARLSYYCRMNYWGQGTQVNVSS” reads “high polyreactivity”; that for “QVQLVESWGGLVQAGGSLSLSCAASGRIIARNAMGWYRQAPGKEREFVAAISFSDGSTYYADSVKGRFTISRDNAKNTVYLQMNSLKPEDSAVYYCNKGASPDDYDYWGQGTQVTVSS”, “low polyreactivity”; that for “QVQLVETAGGLVQAGGSLRLSSAASRSTFGPYAMGWYSQSPGKERELVAAISRRGTSTYYADSVKGRFTISRDNAKHTVYLQMNSLKPDDTAVYYCNAVTSSFYIRDSDYWGQGNQVTVSS”, “high polyreactivity”.

Turning to “QVQLVETGGCLVQAGGSLPLSCAASGRTFRPYAKGLYRPAPGKERELVAAITRGGSTKYADSVKGRFTISRDNAKNTVYLQMNSLKPEDTAVYYCAPDYSVYHRLFDYWGQGTQVTVSS”, the “polyreactivity (PSR sort gate)” value is on record as “high polyreactivity”. With “QVQLVETGGGLDQAGGSLRLSCAASGFTLHRNAKGWYRQAPRKERELVATNSWTGGSTYYADSVKGRFTISRDTAKNTVYLQMNSLKPEDTAVYYCAARGHWSIYGYYYLGATAFGYWGQGTQVTVSS” the entry was “low polyreactivity”; with “QVQLVETGGGLFQAGGSLRLSCAASGFSFGRYAMGWYRQAPGKERELVAAISRGGSSTYYADSVKGRFTISRDTAKNTVYLQMNSLKPEDTAVYYCNKVIIWARFDYWGQGTQVTVSS”, “high polyreactivity”.

Take “QVQLVETGGGLFQAGGSLRLSCAPSGFTFRYNAMGWYRQAPGKERELVAAISWSGGSTYYADSVKGRFTISRDNAKNTVYLQMNSLKPEDTAVYYSNAEYDDYAGEFDYWGQGTQVTGSS”: the “polyreactivity (PSR sort gate)” value is on record as “low polyreactivity”. The result for “QVQLVETGGGLLQAGGSLRISSAASGRIFPSFSMGWYRQAPGKERELVAAITRGGASTYYADSVKGRFTISRDNAKNTVYLQMNSLKPEDTAVYYCAKDAYRYGGLSWTTGMDYWGQGTQVTVSS” reads “high polyreactivity”. With “QVQLVETGGGLLQAGGSLRLSCAASGFTFDFYAMGWYRQAPGKERELVAAINWSGSSTYYADSVKGRFTISRDNAKNTVYLQMNSLKPEDTAVYYCAAQVYYTLFPDVYTMYYWGQGTQVTVSS” the entry was “high polyreactivity”. With “QVQLVETGGGLVHAGGSLRLSCAASGSIFYAYDMGWYRQAPGKERELVAAINWSGDSTYYADSVKGRVTISRDNANNTVYLQMNSLKPEDTAVYYCAAVSGSGDSGEYDYWGQGTQVTVSS” the entry was “low polyreactivity”. With “QVQLVETGGGLVHAGGSLRLSCAASGSILRPNAMGWYRQAPGKERELVAAITTSGGSTYYADSVKGRFTISRDNAKNTVYLQMNSLKPEDTAVYYCAAEYVYYYYLYLYYYWGQGTQVTVSS”, the “polyreactivity (PSR sort gate)” value is “high polyreactivity”. With “QVQLVETGGGLVHAGGSLRLSSAASGRTFVENDMGWYRQAPGKERELVAAITYRGGRTFYADSVKGSFTISRDNAKNTVYLQMNSRKPEDTAVYSCNAVRRTGGHGVYWGQGTQVTVSS” the entry was “high polyreactivity”. With “QVQLVETGGGLVQAGGILLLSCAASRIIFPWYTMGWYRQAPGKERELVAAINYSSGDTYADSVKGRFTISRDNAKNTVYLQMNSLKPEDTAVYYCDAEDPEYATYWYKYGYWGLGTQVTVSS” the entry was “low polyreactivity”; with “QVQLVETGGGLVQAGGILRLSCAASGSIFKAYAMGWYRQAPGKERELVAAITWSGGSTYYADSVKGRFTNSRDNAKNTVYLQMNSLKPEDTAVYYCAATLGLWAYYLYDYWGQGTQVTVSS”, “low polyreactivity”. In the case of “QVQLVETGGGLVQAGGILRLSCAASGSTFYRNAMGWYRQAPGKERELVAAINSTDSTNYADSVKGRFTISRDNAKNTVYLQMNSLKPEDTAVYFCAAVGVNLATAEYDYWGQGTQVTVSS”, the “polyreactivity (PSR sort gate)” value is reported as “low polyreactivity”. The result for “QVQLVETGGGLVQAGGILRLSCAATGSIFKAYDMGWYRKAPAKERELVAAITWSGGSTYYADSVKGRFTISRHNAKNTVYLQMNSLKPEDTAVYYCAAKLGLWAYYLYDYWGQGTQVTVSS” reads “low polyreactivity”; that for “QVQLVETGGGLVQAGGSHSLSCAAAGSTFSRYAMGWYRQAPGTETELVAGISWSGGNTYYADSVKGRVTISRDNAKNTVYLQMNSLKPEETAVYYCAADFLEYWVVYGWAEYEYWAQGTQVTVSS”, “low polyreactivity”. With “QVQLVETGGGLVQAGGSIRLTCAASGLTYTGNAIVWSRQAPGKEMECVAAIRWSAGSTYYADSVKGRFTISRDNAKNTVYLQMNSLKPEDTAVYYCNAALNVSGHYPNDYWGQGTQVTVSS” the entry was “low polyreactivity”. As to “QVQLVETGGGLVQAGGSLRISCAASGGIFVFYAMGWYRQAPGKERELVAAISWSGTSTYYADSVKGGFTISRDNAKYTVYLQMNRLKPEDTAVYYCAALYPYQYVRGGYWGQGTQVTVSS”, the “polyreactivity (PSR sort gate)” value is listed as “high polyreactivity”.
